Measurements from patent publication US20250382344A1, “Soluble GLP1/GIP/NPY2 Receptor Triple Agonists” (Boehringer Ingelheim International GmH, priority 2024, published 2025).
*1 amine or outer side, *2 acyl side, *3 side chain or, on linkers, in order; H or OH if unused. Where no end group is shown, it is not given here. Side-chain parts run from the residue outwards. [ ]: non-standard residue; d: D form. The star is where a group is joined. C20 diacid = O=C(O)CCCCCCCCCCCCCCCCCCC(=O)*; C18 diacid = O=C(O)CCCCCCCCCCCCCCCCC(=O)*; γGlu = O=C(O)[C@H](CCC(=O)[*:2])N[*:1]; εLys = N[C@@H](CCCCN[*:1])C(=O)[*:2]; dOR = not defined here; Aib = CC(C)(N)C(=O)O

T1: human neuropeptide Y2 receptor (human, UniProt P49146 1-381)
T1 sequence (looked up): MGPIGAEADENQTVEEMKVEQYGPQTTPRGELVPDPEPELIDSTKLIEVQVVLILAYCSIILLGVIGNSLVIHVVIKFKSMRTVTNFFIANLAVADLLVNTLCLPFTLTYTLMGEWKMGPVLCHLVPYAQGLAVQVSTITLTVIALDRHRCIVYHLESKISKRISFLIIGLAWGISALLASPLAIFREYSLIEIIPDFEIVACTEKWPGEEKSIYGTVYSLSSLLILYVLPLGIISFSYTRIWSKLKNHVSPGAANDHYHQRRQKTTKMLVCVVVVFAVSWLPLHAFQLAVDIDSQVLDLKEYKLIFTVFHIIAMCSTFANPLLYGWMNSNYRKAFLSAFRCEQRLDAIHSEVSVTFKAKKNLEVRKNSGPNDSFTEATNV

T2: human GIP receptor (human, UniProt P48546 22-466)
T2 sequence (looked up): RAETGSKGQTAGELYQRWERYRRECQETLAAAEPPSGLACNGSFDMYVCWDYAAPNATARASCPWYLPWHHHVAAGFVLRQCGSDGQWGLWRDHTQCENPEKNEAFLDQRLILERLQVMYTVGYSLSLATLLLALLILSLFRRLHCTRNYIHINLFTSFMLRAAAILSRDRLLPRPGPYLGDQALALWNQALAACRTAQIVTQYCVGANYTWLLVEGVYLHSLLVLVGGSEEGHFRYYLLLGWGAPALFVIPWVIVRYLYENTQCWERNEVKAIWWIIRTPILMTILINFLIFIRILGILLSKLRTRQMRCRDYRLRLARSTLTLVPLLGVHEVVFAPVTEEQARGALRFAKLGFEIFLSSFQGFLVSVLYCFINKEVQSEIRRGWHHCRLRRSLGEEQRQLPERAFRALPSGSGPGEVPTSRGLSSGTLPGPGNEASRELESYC


What was measured:
Test in all cases: cell-based or functional assay
[1] = target: T1, human neuropeptide Y2 receptor
human GIP receptor = target: T2, human GIP receptor
human GLP-1 receptor = human GLP-1 receptor (human, UniProt P43220 24-463)

Row | EC50, CreLuc reporter, 0.5% hP [1] [nM] | EC50, CreLuc reporter, 100% hP [1] [nM] | EC50, CreLuc reporter, 0.5% hP (human GIP receptor) [nM] | EC50, CreLuc reporter, 0.5% hP (human GLP-1 receptor) [nM] | EC50, CreLuc reporter, 100% hP (human GLP-1 receptor) [nM] | EC50, CreLuc reporter, 100% hP (human GIP receptor) [nM] | Binder
1 | 16.8 | 388 | 0.1 | 0.3 |  |  | YXEGTFTSDYSIXLEKQAQXEFVRHLINKXTRQRY (Aib at 2, 13, 20, 30; Lys29 epsilon-amino acylated with C18DA-gGlu-gGlu-gGlu-gGlu-gGlu-AHX; C-terminal amide) [Compound 14]
2 | 7.2 | 52.4 | 0.5 | 0.6 | 3.8 |  | YXEGTFTSDYSIXLDKQAQXAFIRHLINKXTRQRY (Aib at 2, 13, 20, 30; Lys29 epsilon-amino acylated with C20DA-gGlu-gGlu-gGlu-gGlu-gGlu-gGlu-eLys; C-terminal amide) [Compound 81]
3 | 7.1 | 90.6 | 0.5 | 0.4 | 3.3 |  | YXEGTFTSDYSIXLDKQAQXAFVRHLINKXTRQRY (Aib at 2, 13, 20, 30; Lys29 epsilon-amino acylated with C20DA-gGlu-gGlu-gGlu-gGlu-gGlu-gGlu-eLys; C-terminal amide) [Compound 74]
4 | 47.6 | 140 | 0.8 | 1.8 |  |  | Y[Aib]EGTFTSDYSI[Aib]LEKQAQ[Aib]AFVRHLINK([γGlu-γGlu-γGlu-γGlu-γGlu-γGlu-C18 diacid])LTRQRY-NH2 [Compound 12]
5 |  | 59.1 | 0.5 | 0.7 | 1.8 | 2 | Y[Aib]EGTFTSDYSI[Aib]LDKQAQ[Aib]AFVRHLINK([εLys-γGlu-γGlu-γGlu-γGlu-γGlu-γGlu-γGlu-C20 diacid])[Aib]TRQ[dOR]Y-NH2 (reading uncertain) [Compound 16]
